PMC9978035, “Human uridine 5′-monophosphate synthase stores metabolic potential in inactive biomolecular condensates” (The Journal of Biological Chemistry, 2023)
Changes are numbered by the printed parent chain. Names may count otherwise.

Assays:
[1] = target: the molecule itself; assay: SEC; 20 mM Tris pH 7.5, 100 mM NaCl; SEPAX SRT-10-SEC-300 or Superdex 200 columns; MW standards run under the same conditions; also run with 500 μM orotate
[2] = target: the molecule itself; assay: AUC; sedimentation at 38,000 rpm, absorbance at 280 nm, 1 mg/ml (WT) or 1.5 mg/ml (mutants) and 1:5 dilutions, SEDFIT continuous sedimentation profiles
[3] = target: the molecule itself; assay: cross-linking; SEC fractions in 50.0 mM Na3PO4 pH 8.0, 100.0 mM NaCl, 0.004% glutaraldehyde, quenched at time points up to 2 h, SDS-PAGE

B1: Human uridine 5′-monophosphate synthase (HsUMPS), wildtype (enzyme, UniProt P11172 1-480, looked up)
chain: MAVARAALGPLVTGLYDVQAFKFGDFVLKSGLSSPIYIDLRGIVSRPRLLSQVADILFQTAQNAGISFDTVCGVPYTALPLATVICSTNQIPMLIRRKETKDYGTKRLVEGTINPGETCLIIEDVVTSGSSVLETVEVLQKEGLKVTDAIVLLDREQGGKDKLQAHGIRLHSVCTLSKMLEILEQQKKVDAETVGRVKRFIQENVFVAANHNGSPLSIKEAPKELSFGARAELPRIHPVASKLLRLMQKKETNLCLSADVSLARELLQLADALGPSICMLKTHVDILNDFTLDVMKELITLAKCHEFLIFEDRKFADIGNTVKKQYEGGIFKIASWADLVNAHVVPGSGVVKGLQEVGLPLHRGCLLIAEMSSTGSLATGDYTRAAVRMAEEHSEFVVGFISGSRVSMKPEFLHLTPGVQLEAGGDNLGQQYNSPQEVIGKRGSDIIIVGRGIISAADRLEAAEMYRKAAWEAYLSRLGV
notes: Human UMP synthase (UMPS), bifunctional enzyme with OPRT and OMPDC domains; codon-optimized human UMPS in pDB-His-MBP between NdeI and XhoI; expected protomer MW 52 kDa; both domains are present and the expected protomer mass of 52 kDa fits the whole protein (surmise); also called human UMPS; UMP synthase; source: E. coli BL21(DE3), purified (amylose resin, on-column TEV cleavage, Ni-NTA, SEC or …)
[1]
  stoichiometry N: 2

B2: HsUMPS D312N (OMPDC active site mutant) (enzyme, human, UniProt P11172 1-480, looked up)
chain: B1 chain with D312N
notes: Human UMP synthase (UMPS) with the OMPDC active site mutation D312N; same construct as the wildtype; as m1 with the mutation; also called OMPDC mutant; source: E. coli BL21(DE3), purified in a similar fashion as WT; not shown: His6, N-terminal, cleaved; MBP, N-terminal, cleaved
[1]
  binding result: binds

B3: HsUMPS S87T/Q90E (OPRT dimerization-deficient mutant) (enzyme, human, UniProt P11172 1-480, looked up)
chain: B1 chain with S87T, Q90E
notes: Human UMP synthase (UMPS) with the double mutation S87T/Q90E at the native OPRT dimer interface; same construct as the wildtype; as m1 with the mutations; also called oligomerization-deficient mutant; source: E. coli BL21(DE3), purified in a similar fashion as WT; not shown: His6, N-terminal, cleaved; MBP, N-terminal, cleaved
[2]
  stoichiometry N: 2

B4: HsUMPS E123Q (OPRT active site mutant) (enzyme, human, UniProt P11172 1-480, looked up)
chain: B1 chain with E123Q
notes: Human UMP synthase (UMPS) with the OPRT active site mutation E123Q; same construct as the wildtype; as m1 with the mutation; also called E123Q OPRT mutant; source: E. coli BL21(DE3), purified in a similar fashion as WT; not shown: His6, N-terminal, cleaved; MBP, N-terminal, cleaved
[3]
  stoichiometry N: 2
